Experimental data from publication PMC6593972, “Two-Step Activation Mechanism of the ClpB Disaggregase for Sequential Substrate Threading by the Main ATPase Motor” (Cell Reports, 2019).

Molecular target: the molecule itself
Test: cryo-EM structure; ClpB hexamer with a 20-fold molar excess of casein, 10 min at room temperature in 25 mM Tris-HCl pH 7.4, 25 mM KCl, 10 mM MgCl2, 2 mM ATPγS, 1 mM DTT; single-particle cryo-EM

B1: ClpB-DWB-K476C (natural protein)
chain: not shown
notes: ClpB, bacterial disaggregase, with K476C (M-domain) and the double Walker B mutations E279A/E678A; ATPase-deficient variant used to trap substrate for cryo-EM in the presence of ATPγS; also called ClpB-K476C-DWB; ClpB-K476C/E279A/E678A; source: E. coli ΔclpB::kan cells, purified (Ni-IDA, size exclusion chromatography Superdex S200)
stoichiometry N: 6
